Laboratory results taken from PMC6138625.

Tests used:
Assay in all cases: magnetic tweezers SMBA
[1] = tested on: yUPF1 helicase domain (Saccharomyces cerevisiae); details: no ATP; 7 pN; n=11; SMBA in helicase buffer without ATP (composition not in the material), 1-20 nM helicase, force cycles >15 pN / 7 pN / <3 pN
[2] = tested on: UPF1 R487S (R-S) (Saccharomyces cerevisiae); details: SMBA in helicase buffer without ATP (composition not in the material), 1-20 nM helicase, force cycles >15 pN / 7 pN / <3 pN
[3] = tested on: IGHMBP2/BC (Homo sapiens / Saccharomyces cerevisiae chimera); details: no ATP; SMBA in helicase buffer without ATP (composition not in the material), 1-20 nM helicase, force cycles >15 pN / 7 pN / <3 pN
[4] = tested on: UPF1/BC (Saccharomyces cerevisiae / Homo sapiens chimera); details: no ATP; slides; SMBA in helicase buffer without ATP (composition not in the material), 1-20 nM helicase, force cycles >15 pN / 7 pN / <3 pN
[5] = tested on: IGHMBP2 helicase core (Homo sapiens); details: no ATP; 7 pN; n=48; SMBA in helicase buffer without ATP (composition not in the material), 1-20 nM helicase, force cycles >15 pN / 7 pN / <3 pN
[6] = tested on: IGHMBP2-FL (Homo sapiens); details: no ATP; 7 pN; n=27; SMBA in helicase buffer without ATP (composition not in the material), 1-20 nM helicase, force cycles >15 pN / 7 pN / <3 pN

magnetic tweezers DNA hairpin was tested, and the binding signal (s (residence time)) [1] was > 5500, the binding signal (s (residence time)) ([2]; ADPNP, sliding -0.109 nm/s, n=58) was 1630 and the binding signal (s (residence time)) ([2]; no ATP, sliding -0.063 nm/s) was 1840. It also gave a binding signal (s (residence time)) [3] of 9540, a binding signal (s (residence time)) [4] of 930 and a binding signal (s (residence time)) [5] of 20. The binding signal (s (residence time)) [6] was 60.
